Patent US20240368286A1 (SHANGHAI JMT BIO TECHNOLOGY, published 2024)
Like-named read-outs stand apart in the source and are kept apart here.

How the values were obtained:
[1] = molecular target: Cynomolgus monkey GFRAL protein (Biacore analyte) (cynomolgus monkey); test: Biacore SPR, humanized antibody captured via murine anti-human Fc on CM5, GFRAL injected in 2-fold dilutions, 25 C
Experimental: (§1) Specific protocols are as follows.
(§2) The surface of the CM5 chip was activated using 400 mM EDC and 100 mM NHS at a flow rate of 10 μl/min according to the instructions for the amino-coupled kit (Cat. No. BR100050, Cytiva). Then, the murine anti-human Fc antibody was immobilized in the test channel (Fc2) and the reference channel (Fc1) of the CM5 chip. Finally, the chip was blocked with 1 M ethanolamine at a flow rate of 10 μl/min; The humanized antibody (˜300 RU) diluted to 5 μg/ml was then captured on the assay channel (Fc2), and ligand capture were not carried out on the reference channel. Human, mouse or cynomolgus monkey GFRAL proteins (in a HBS-EP buffer) with 2-fold doubling dilutions was subsequently injected at a flow rate of 30 μL/min and the binding kinetics were evaluated at 25° C. The results are as follows (see Table 12)

[2] = molecular target: T1, Mouse GFRAL protein (Biacore analyte) (mouse, UniProt Q6SJE0 20-349, limits assumed); test: as above
T1 construct: also called mGFRAL
T1 sequence (looked up): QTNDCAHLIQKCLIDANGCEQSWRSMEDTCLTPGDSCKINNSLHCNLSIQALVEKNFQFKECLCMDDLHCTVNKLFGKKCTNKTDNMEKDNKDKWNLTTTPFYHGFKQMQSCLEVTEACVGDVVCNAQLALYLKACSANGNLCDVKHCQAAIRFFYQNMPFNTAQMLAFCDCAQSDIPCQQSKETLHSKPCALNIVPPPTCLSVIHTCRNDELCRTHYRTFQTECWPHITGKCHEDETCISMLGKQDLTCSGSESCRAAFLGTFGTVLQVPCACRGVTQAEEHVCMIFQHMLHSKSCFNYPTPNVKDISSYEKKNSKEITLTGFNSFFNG
Experimental: as §1, §2

[3] = molecular target: T2, Human GFRAL protein (Biacore analyte) (human, UniProt Q6UXV0 19-351, limits assumed); test: as above
T2 construct: also called hGFRAL
T2 sequence (looked up): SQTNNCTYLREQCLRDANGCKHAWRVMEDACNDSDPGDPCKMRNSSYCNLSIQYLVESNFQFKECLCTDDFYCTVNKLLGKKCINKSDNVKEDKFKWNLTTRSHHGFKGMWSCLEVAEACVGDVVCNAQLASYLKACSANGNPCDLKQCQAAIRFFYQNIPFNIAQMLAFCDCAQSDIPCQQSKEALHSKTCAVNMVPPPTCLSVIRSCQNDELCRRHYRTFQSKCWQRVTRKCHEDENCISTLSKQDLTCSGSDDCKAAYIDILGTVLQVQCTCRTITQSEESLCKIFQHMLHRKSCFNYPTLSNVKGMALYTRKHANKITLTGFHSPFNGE
Experimental: as §1, §2

[4] = molecular target: T3, Mouse GFRAL (mGFRAL) on HEK293 reporter cells with mouse RET (mouse, UniProt Q6SJE0 20-393); test: cell-based or functional assay
T3 sequence (looked up): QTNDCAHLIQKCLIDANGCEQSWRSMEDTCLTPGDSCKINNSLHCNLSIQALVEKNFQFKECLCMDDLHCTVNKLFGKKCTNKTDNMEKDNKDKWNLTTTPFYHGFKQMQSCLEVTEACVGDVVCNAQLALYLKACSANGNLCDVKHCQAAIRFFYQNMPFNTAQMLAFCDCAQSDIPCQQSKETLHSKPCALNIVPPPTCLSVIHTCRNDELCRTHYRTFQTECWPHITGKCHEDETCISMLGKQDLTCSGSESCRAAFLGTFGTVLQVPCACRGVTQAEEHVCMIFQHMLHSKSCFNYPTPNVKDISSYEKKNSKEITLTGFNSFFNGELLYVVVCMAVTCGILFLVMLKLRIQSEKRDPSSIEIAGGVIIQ

[5] = molecular target: T4, Human GFRAL (hGFRAL) on HEK293 reporter cells with human RET (human, UniProt Q6UXV0 19-394); test: cell-based or functional assay
T4 sequence (looked up): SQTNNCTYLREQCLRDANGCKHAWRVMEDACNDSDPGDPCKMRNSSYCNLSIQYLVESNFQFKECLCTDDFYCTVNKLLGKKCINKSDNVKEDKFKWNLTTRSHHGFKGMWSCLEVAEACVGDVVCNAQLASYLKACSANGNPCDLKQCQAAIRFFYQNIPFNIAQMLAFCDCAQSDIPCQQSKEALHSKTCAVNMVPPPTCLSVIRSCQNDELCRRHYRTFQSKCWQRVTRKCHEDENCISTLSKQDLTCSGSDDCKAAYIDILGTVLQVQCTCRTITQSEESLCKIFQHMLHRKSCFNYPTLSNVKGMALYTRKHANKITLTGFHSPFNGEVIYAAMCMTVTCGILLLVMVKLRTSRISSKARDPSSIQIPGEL

[6] = molecular target: T3, Mouse GFRAL (mGFRAL) on HEK293 reporter …; test: cell-based or functional assay; remark: listed apart in the source
[7] = molecular target: T4, Human GFRAL (hGFRAL) on HEK293 reporter …; test: cell-based or functional assay; remark: listed apart in the source
Mouse GFRAL-Fc protein = molecular target: T5, Mouse GFRAL-Fc protein (mouse, UniProt Q6SJE0 20-349, limits assumed); test: ELISA, antigen coated on plate, purified antibody titrated, HRP anti-mouse IgG detection
T5 construct: not shown: Fc
T5 sequence (looked up): T1 sequence (looked up)
Experimental: (§3) The ELISA assay had the following protocols. Human GFRAL-His protein, cynomolgus monkey GFRAL-His protein, or mouse GFRAL-Fc protein were coated on 96-well plates, and after blocking the wells with PBS/1% BSA solution, the hybridoma supernatant or purified antibodies were added to the reaction wells. After incubation for 1 hour at room temperature, HRP-labeled anti-mouse IgG (Fab region) antibody was added to the reaction wells to incubate for an additional hour at room temperature. After the substrate and stop solution were added successively, the OD₄₅₀ values were read. The OD₄₅₀ values were used to verify and assess the binding ability of the antibodies to the GFRAL proteins.

Human GFRAL-His protein = molecular target: T6, Human GFRAL-His protein (human, UniProt Q6UXV0 19-351); test: as above
T6 construct: also called human GFRAL-His fusion protein; not shown: His tag
T6 sequence (looked up): T2 sequence (looked up)
Experimental: as §3

[8] = molecular target: Cynomolgus monkey GFRAL-His protein (cynomolgus monkey); test: as above
Experimental: as §3

[9] = molecular target: T1, Mouse GFRAL protein (Biacore analyte); test: Biacore SPR, antibody captured via anti-human Fc on CM5, GFRAL injected, 25 C
Experimental: (§4) Binding affinity assays were performed for three antibody strains 168A7, 8E10 and 26D7 based on the Biacore affinity assay. The binding affinities of purified antibodies to human or mouse GFRAL were assessed by measuring the equilibrium dissociation constants (KD). The anti-human Fc antibody was immobilized in the flow cell of the CM5 chip according to the instructions of the amino-coupled kit (catalogue number: BR100050, Cytiva). Purified antibodies (˜300 RU) were captured on flow cells 2, 3 and 4 using flow cell 1 as a reference. Human or mouse GFRAL protein (in an HBS-EP buffer) was then injected at a flow rate of 30 μL/min and the binding kinetics were evaluated at 25° C. The results were as follows (FIGS. 1A-1C, Table 4)

[10] = molecular target: T2, Human GFRAL protein (Biacore analyte); test: as above
Experimental: as §4

B1: 26D7H3aL2c (antibody, V domains shown)
VH: QVQLVQSGAEVKKPGASVKISCKVSGYTFTDYGMNWVRQTPGQGLKWVGWINTYTGEPTYADDFKDRFTFTLDASTSTAYMELRSLRSDDTAVYFCARRYGYDAGIDAWGQGTLVTVSS
VL: EIVLTQSPGTLSLSPGERATLSCRASESVESYGNNLMHWYQQKPGQAPRLLIYLASYLESGVPDRFSGSGSGTDFTLTISRLEPEDFATYYCQQNNESPWTFGQGTKVEIK
notes: Humanized; also called humanized anti-GFRAL antibody 26D7H3aL2c
A Kd [1] of 0.131 nM, a koff [1] of 0.000193 s⁻¹ and a koff [2] of 0.000215 s⁻¹ were found for B1 in this work. The Kd [3] was 0.0465 nM, the koff [3] was 0.000125 s⁻¹ and the “IC50 (nM), luciferase reporter gene assay, Mouse GFRAL/mouse RET” value (“IC50 (nM) … Mouse GFRAL/mouse RET” for short) [4] was 1.9 nM. The “IC50 (nM), luciferase reporter gene assay, Human GFRAL/human RET” value (“IC50 (nM) … Human GFRAL/human RET” below) [5] was 8.3 nM.

B2: 26D7H5bL5a (antibody, V domains shown)
VH: QVQLVQSGAEVKKPGASVKVSCKVSGYTFTDYGMNWVRQAPGQGLEWMGWINTYTGEPTYAQKLQGRVTFTTDTSTSTAYMELRSLRSDDTAVYYCARRYGYDAGIDAWGQGTTVTVSS
VL: DIQMTQSPSSLSASVGDRVTITCRASESVESYGNNLMHWYQQKPGKAPKLLIYLASYLESGVPSRFSGSGSGTDFTLTISSLQPEDFATYYCQQNNESPWTFGGGTKLEIK
notes: Humanized; also called humanized anti-GFRAL antibody 26D7H5bL5a
A Kd [1] of 0.246 nM, a koff [1] of 0.000231 s⁻¹ and a koff [2] of 0.000314 s⁻¹ were found for B2 in this work. The Kd [3] was 0.119 nM, the koff [3] was 0.000268 s⁻¹ and the “IC50 (nM) … Mouse GFRAL/mouse RET” value [4] was 0.9 nM. For the same binder, the “IC50 (nM) … Human GFRAL/human RET” value [5] was 11.8 nM.

B3: 26D7 (antibody, V domains shown)
VH: QIQLVQSGPELKKPGETVKISCKVSGYTFTDYGMNWVKQTPGKDLKWVGWINTYTGEPTYADDFKDRFAFSLEASASTAYLQINNLKNEDTATYFCARRYGYDAGIDCWGQGTTLTVSS
VL: NIVLTQSPPSLAVSLGQRATISCRASESVDSYGNNLMHWYQQKPGQPPKLLIYLASYLESGVPARFSGSGSRTDFTLTIDPVEADDAATYYCQQNNEDPWTFGGGTKLEIK
notes: Murine hybridoma antibody, purified; also called m26D7; M26D7
In the case of B3, the “IC50 (nM) … Mouse GFRAL/mouse RET” value [6] is reported as 0.76 nM, the “IC50 (nM) … Human GFRAL/human RET” value [7] is reported as 6.35 nM and the EC50 (Mouse GFRAL-Fc protein) is reported as 0.15 nM. The EC50 (Human GFRAL-His protein) was 0.07 nM, the EC50 [8] was 0.06 nM and the koff [9] was 0.000293 s⁻¹. The Kd [10] was 0.0153 nM and the koff [10] was 9.37e-05 s⁻¹.
